Data reported in publication doi:10.1101/2023.09.29.560221 (bioRxiv, 2023).

T1: human Topoisomerase I (human, UniProt P11387 1-765)
T1 sequence: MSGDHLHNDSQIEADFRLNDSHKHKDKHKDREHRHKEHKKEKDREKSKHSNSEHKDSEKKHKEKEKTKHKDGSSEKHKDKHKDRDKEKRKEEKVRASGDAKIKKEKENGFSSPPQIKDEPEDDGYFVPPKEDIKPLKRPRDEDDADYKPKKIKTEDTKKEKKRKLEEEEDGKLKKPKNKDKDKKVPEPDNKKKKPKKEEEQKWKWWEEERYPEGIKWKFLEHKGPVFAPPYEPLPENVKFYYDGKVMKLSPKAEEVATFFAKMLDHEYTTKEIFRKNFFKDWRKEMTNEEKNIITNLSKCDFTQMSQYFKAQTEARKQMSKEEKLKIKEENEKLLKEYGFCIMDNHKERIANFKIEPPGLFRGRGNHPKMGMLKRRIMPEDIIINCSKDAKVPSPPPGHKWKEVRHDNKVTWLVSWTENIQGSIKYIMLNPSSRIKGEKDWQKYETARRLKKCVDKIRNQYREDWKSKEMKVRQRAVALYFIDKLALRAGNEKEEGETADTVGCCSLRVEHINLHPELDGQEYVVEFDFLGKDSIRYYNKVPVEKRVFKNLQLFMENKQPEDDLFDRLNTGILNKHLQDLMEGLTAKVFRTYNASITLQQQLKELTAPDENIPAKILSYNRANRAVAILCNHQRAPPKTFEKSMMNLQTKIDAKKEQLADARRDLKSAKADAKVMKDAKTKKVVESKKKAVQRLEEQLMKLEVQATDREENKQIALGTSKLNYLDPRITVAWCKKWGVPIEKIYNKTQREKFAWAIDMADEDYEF


What was measured:
human Topoisomerase I = biological target: T1, human Topoisomerase I; assay: ELISA
native gel or EMSA = biological target: the molecule itself; assay: native gel or EMSA

Binder | binding result (human Topoisomerase I) | stoichiometry N (native gel or EMSA)
SV40 Large T-antigen (LT), wild type, purified from insect cells (natural protein) MDKVLNREESLQLMDLLGLERSAWGNIPLMRKAYLKKCKEFHPDKGGDEEKMKKMNTLYKKMEDGVKYAHQPDFGGFWDATEIPTYGTDEWEQWWNAFNEENLFCSEEMPSSDDEATADSQHSTPPKKKRKVEDPKDFPSELLSFLSHAVFSNRTLACFAIYTTKEKAALLYKKIMEKYSVTFISRHNSYNHNILFFLTPHRHRVSAINNYAQKLCTFSFLICKGVNKEYLMYSALTRDPFSVIEESLPGGLKEHDFNPEEAEETKQVSWKLVTEYAMETKCDDVLLLLGMYLEFQYSFEMCLKCIKKEQPSHYKYHEKHYANAAIFADSKNQKTICQQAVDTVLAKKRVDSLQLTREQMLTNRFNDLLDRMDIMFGSTGSADIEEWMAGVAWLHCLLPKMDSVVYDFLKCMVYNIPKKRYWLFKGPIDSGKTTLAAALLELCGGKALNVNLPLDRLNFELGVAIDQFLVVFEDVKGTGGESRDLPSGQGINNLDNLRDYLDGSVKVNLEKKHLNKRTQIFPPGIVTMNEYSVPKTLQARFVKQIDFRPKDYLKHCLERSEFLLEKRIIQSGIALLLMLIWYRPVAEFAQSIQSRIVEWKERLDKEFSLSVYQKMKFNVAMGIGVLDWLRNSDDDDEDSQENADKNEDGGEKNMEDSGHETGIDSQSQGSFQAPQSSQSVHDHNQPYHICRGFTCFKKPPTPPPEPET | binds | 
SV40 Large T-antigen T518D (phosphomimetic mutant), purified from insect cells (natural protein) MDKVLNREESLQLMDLLGLERSAWGNIPLMRKAYLKKCKEFHPDKGGDEEKMKKMNTLYKKMEDGVKYAHQPDFGGFWDATEIPTYGTDEWEQWWNAFNEENLFCSEEMPSSDDEATADSQHSTPPKKKRKVEDPKDFPSELLSFLSHAVFSNRTLACFAIYTTKEKAALLYKKIMEKYSVTFISRHNSYNHNILFFLTPHRHRVSAINNYAQKLCTFSFLICKGVNKEYLMYSALTRDPFSVIEESLPGGLKEHDFNPEEAEETKQVSWKLVTEYAMETKCDDVLLLLGMYLEFQYSFEMCLKCIKKEQPSHYKYHEKHYANAAIFADSKNQKTICQQAVDTVLAKKRVDSLQLTREQMLTNRFNDLLDRMDIMFGSTGSADIEEWMAGVAWLHCLLPKMDSVVYDFLKCMVYNIPKKRYWLFKGPIDSGKTTLAAALLELCGGKALNVNLPLDRLNFELGVAIDQFLVVFEDVKGTGGESRDLPSGQGINNLDNLRDYLDGSVKVNLEKKHLNKRDQIFPPGIVTMNEYSVPKTLQARFVKQIDFRPKDYLKHCLERSEFLLEKRIIQSGIALLLMLIWYRPVAEFAQSIQSRIVEWKERLDKEFSLSVYQKMKFNVAMGIGVLDWLRNSDDDDEDSQENADKNEDGGEKNMEDSGHETGIDSQSQGSFQAPQSSQSVHDHNQPYHICRGFTCFKKPPTPPPEPET | binds | 6
